“Also recorded” adds a separate entry of the source.
What was measured:
[1] = system: Aβ generation; test: Aβ generation / APP processing in N2aSwe cells overexpressing FG01 (IP-Western blot); type: cell-based, mouse
Experimental: To investigate FG01's effects on Aβ generation, the His6-tagged recombinant FG01 was overexpressed in N2aSwe cells. The levels of βCTF, APP, sAPPα and secreted and intracellular Aβ were then quantified in the transfected cells and compared to those parental cells.
The His6-tagged FG01 was overexpressed in N2aSwe cells. The secreted and intracellular Aβ were immunoprecipitated by 4G8. The precipitated peptides and sAPPα, βCTF, full length APP and FG01 were analyzed by Western blots. α-tubulin was used as loading control. The levels of the proteins were quantified by densitometry and normalized and compared to those in vector transfected control.
To corroborate this, FG01 was over expressed in N2aSwe cells.

[2] = system: cAMP levels; test: cAMP assay in rat PC12 cells; type: cell-based; settings: FG01 overexpression
Experimental: Commercial kits were used to assay in vitro activities of GSK-3β (Sigma) and PKA (Upstate). For GSK-3α activity, a commercial GSK-3β activity assay kit was used but the procedure to immunoprecititate GSK-3β was replaced with immunoprecipitation of GSK-3α using an anti-GSK-3α antibody (Cell Signaling). cAMP levels were assayed using a commercial kit (Biovision).

[3] = system: PKC; test: PKC activity in N2a cell lysates (32P peptide substrate); type: cell-based, mouse; settings: FG01 overexpression in N2a cells
Experimental: N2a cells were transfected with pcDNA or FG01. After lysis, cell lysates containing […] of total proteins were incubated with synthesized PKC specific peptide substrate and ^32P-ATP. The ^32P labeled peptides were captured and the radioactivities were quantified by scintillation. The activities of PKC were represented by the normalized radioactivities of the labeled peptide substrates. n=4.

[4] = system: β-catenin; test: β-catenin level in mouse N2a cells (Western blot); type: cell-based; settings: FG01 overexpression
Source text: The levels of total GSK-3 were used as normalization factors.

[5] = system: FG01 transgenic mouse brain; test: brain-specific FG01 transgenic mice, brain analysis; type: in vivo
Source text: (§1) Brain-specific FG01 transgenic mice were generated using a FG01 expression cassette. FG01 has an N-terminal Myc tag and is driven by the human Thy-1 promoter for neuron-specific expression. A SV40 polyA fragment is linked at the 3′ end for enhancing expression. Genotyping P5 primer was complementary to hThy1 sequence. Genotyping P3 primer was complementary to SV40/Poly A sequence. Reverse transcription primer RT-P5 was complementary to sequence on the 5′ side of the FG01 sequence. Hemizygous FG01 transgenic mice were crossed with homozygous triple transgenic (3×Tg) AD mice harboring mutations in human APP and tau genes on a presenilin 1 (PS1) mutant background (Oddo et al., 2003). Procedures involving animals and their care conformed to institutional guidelines (Animal Resources Department at Burnham Institute for Medical Research).
N-terminally Myc-tagged FG01 cDNA was cloned into pHZ04 construct between the human Thy-1 promoter and the SV40 polyA regions. Purified, linearized minigenes containing these sequences were microinjected into prenuclear embryos from superovulated C57B16 females. Two primers (Genotyping-P5: 5′-[…]-3′; SEQ ID NO:25), and Genotyping-P3: 5′-[…]-3′; SEQ ID NO:26) located within the human Thy-1 promoter and the SV40 regions, respectively, were used for genotyping. Brain tissues from confirmed transgenic mice and littermate controls were used for RNA extraction, reverse transcription and PCR with RT-P5 primer (5′-AGAATTTGGCTGTTTGG-3′; SEQ ID NO:27) located within the FG01 cDNA region paired with the Genotyping-P3 primer to verify Myc-FG01 expression. Alternatively, brain lysates were immunoprecipitated and analyzed by Western blot with the Myc antibody to verify Myc-FG01 expression. Procedures involving animals and their care conformed to institutional guidelines (Animal Resources Department at Burnham Institute for Medical Research).
To validate FG01 function in vivo, an FG01 transgenic mouse model specifically overexpressing Myc-tagged FG01 in the brain was generated. A transgenic expression cassette driven by the human Thy-1 promoter was microinjected into C57B16 mice and primers specifically amplifying exogenous Myc-FG01 were used to genotype transgenic mice. Genomic DNA extracted from mouse tail samples was genotyped by PCR using Genotyping-P5 and Genotyping-P3 primers located in the human Thy1 and SV40 polyA regions, respectively. […] Total RNA was extracted from the brain of an FG01 transgenic mouse (1) and of a littermate control (0), followed by RT-PCR with the RT-P5 primer located within the FG01-coding region and the Genotyping-P3 primer for detecting Myc-FG01 mRNA. Immunoprecipitation/Western blot confirmed that exogenous Myc-tagged FG01 protein was expressed in brain tissues of transgenic mice. Brain samples from FG01 transgenic (Tg) mice and littermate controls (Non-Tg) were analyzed for levels of phosphorylated/total CREB, phosphorylated/total GSK-3, and various tau forms by direct Western blot. Myc-FG01 was detected by immunoprecipitation-Western blot using the Myc antibody. Two mouse lines with similar exogenous FG01 expression levels were generated and the results obtained from the two lines (including their crossing with 3×Tg mice as described below) were similar. […] Brain lysates from FG01-Tg and Non-Tg mice were analyzed for GSK-3β activity. Results were normalized to those of Non-Tg samples.

[6] = system: 3×Tg AD mice; test: FG01 transgenic mice crossed with triple transgenic (3×Tg) AD mice, brain analysis; type: in vivo, mouse
Source text: as §1
FG01/3×Tg mice and littermate controls on a 3×Tg background were sacrificed at 11 months of age. Half of the brain was used for immunoblot analysis and the other half was paraffin-embedded for immunohistochemistry. Sagittal brain sections (4 μm) were deparaffinized, hydrated, and then immunostained with anti-Aβ antibody (6E10), anti-phosphorylated tau antibody (PHF-1), or anti-synapsin antibody. After additional incubation with biotinylated secondary antibody, samples were incubated in ABC Elite (HRP) reagent (Vector Laboratories). Reactions were visualized by developing in DAB substrates (Vector Laboratories). All samples were visualized under a light microscope.
FG01 transgenic mice were crossed with triple transgenic (3×Tg) AD mice harboring mutations in human APP, tau and presenilin 1 (PS1) genes (Oddo et al., 2003).

[7] = FG01 overexpression in N2aSwe cells
[8] = FG01/3×Tg vs 3×Tg littermates, 11 months

B1: FG01: 141 amino acid transmembrane protein encoded by mouse retrogene fg01 (SEQ ID NO:2); expressed from transfected vector or transgene (protein)
chain: MQSQQRNIGYFNHLKADSRNITYSMTFSTKSSNQNFIIFLNEVQAAIIGHERCDLLPVLNELHPDALPDGRIWLFGLNPYFFQHNSLCMRGTPKRIGLQGCAQVGFLVLFVMPLLIPSVTAELPGSSETTTLAHLAGATGP
modifications: Myc and His6 tags; homo sapien
notes: expressed from transfected vector or transgene
What does the source list for B1?
Aβ production in the presence of lithium ([1]; FG01-transfected N2aSwe cells, 5 mM LiCl 4 hrs): could not further reduce; levels of extracellular and intracellular Aβ [1, 7]: dramatically reduced; levels of total APP [1, 7]: not affected; sAPPα level [1, 7]: stimulated; also recorded: greatly increased; βCTF level [1, 7]: greatly accumulated; also recorded: greatly increased; levels of secreted and intracellular Aβ, reduction ([1]; His6-tagged FG01 overexpressed in N2aSwe cells vs control, Aβ40 and 42 equally reduced): more than 50%; Aβ levels in LiCl-pretreated cells ([1]; N2a/swe cells pretreated with 5 mM LiCl for 24 hrs before FG01 transfection): did not further decrease; increase of cAMP levels [2]: 75%; PKC activity [3]: increased; level of β-catenin [4]: increases; levels of phosphorylated (inactive) GSK-3α/β in brain ([5]; FG01 transgenic vs littermate non-Tg mice): increased; CREB phosphorylation in brain ([5]; FG01 transgenic vs non-Tg mice): Increased; phosphorylation of endogenous mouse brain tau ([5]; FG01 transgenic vs non-Tg mice): decreased; GSK-3β activity in brain ([5]; FG01 transgenic vs non-Tg mice, brain lysates): reduced; behavioral phenotypes ([5]; observation of FG01 transgenic mice): no obvious aberrant behavioral phenotypes; levels of the synaptic marker PSD-95 ([6]; 3×Tg mouse brains with FG01 overexpression): markedly increased; Aβ generation in brain [6, 8]: reduced; GSK-3 activity in brain [6, 8]: reduced; PKA activity in brain [6, 8]: dramatically increased; tau phosphorylation in brain [6, 8]: reduced; number of Aβ-immunostaining-positive neurons ([6]; hippocampus and cortex, immunohistochemistry 6E10): significantly decreased; number of phosphorylated tau-immunostaining-positive neurons ([6]; hippocampus and cortex, immunohistochemistry PHF-1): significantly decreased; synapsin immunostaining ([6]; hippocampus, vs 3×Tg mice without FG01): much higher immunoreactivity

From US20090233993A1, “COMPOSITIONS AND METHODS FOR INHIBITING GSK3 ACTIVITY AND USES THEREOF” (Burnham Institute for Medical Research, priority 2008, published 2009)
